Measured values from the RNAGym collection of RNA variant scans (doi:10.7554/elife.80360).

B1: HDV Ribozyme (parent)
chain: GGCCGGCAUGGUCCCAGCCUCCUCGCUGGCGCCGGCUGGGCAACAUUCCGAGGGGACCGUCCCCUCGGUAAUGGCGAAUGGGACCCA

Variants of: B1
Assay: self-cleavage, relative activity (ratio to wild type); higher = more cleavage; co-transcriptional

| Variant | self-cleavage |
| --- | --- |
| A43U G73U | 0.141 |
| C41U U65C | 0.954 |
| C41U U65G | 0.976 |
| G40U G81C | 0.149 |
| G40U G73U | 0.424 |
| G40U U46G | 0.136 |
| A42C C44G | 0.217 |
| A43C G67C | 0.243 |
| A43G A70G | 0.914 |
| A43U C85U | 0.658 |
| A43U C85A | 0.499 |
| A43C C86U | 0.649 |
| G40U U69G | 0.727 |
| A43G G50A | 0.502 |
| A43G G50C | 0.739 |
| C41A C85U | 0.849 |
| C41G G52U | 0.554 |
| C41G G52A | 0.562 |
| A43G A83U | 0.266 |
| C41U C57G | 1.09 |
| A43G C48U | 0.587 |

| Variant | self-cleavage |
| --- | --- |
| A43G C48G | 0.719 |
| A43C A87U | 0.59 |
| A42U C84G | 0.198 |
| C41U A51C | 0.916 |
| C41U A51U | 0.932 |
| C41U U60A | 0.815 |
| C41A C84A | 0.435 |
| A43C U47A | 0.506 |
| C41G G54C | 0.849 |
| A42C G52C | 0.359 |
| A42G G80U | 0.095 |
| A43U A77C | 0.0519 |
| A42U C48G | 0.646 |
| A43C C84G | 0.237 |
| A43C C84A | 0.332 |
| A42C C64G | 0.277 |
| A43G C57G | 0.356 |
| A43G C57U | 0.974 |
| A43G C57A | 0.628 |
| C41A C86U | 0.904 |
| A43G G82U | 0.189 |

| Variant | self-cleavage |
| --- | --- |
| A43G G82A | 0.138 |
| C44A A71G | 0.427 |
| A42G A51G | 0.571 |
| C41G G68A | 0.45 |
| C41G G68C | 0.483 |
| C41G A71G | 0.554 |
| A42G A71C | 0.151 |
| A43C G54A | 0.415 |
| A42C C84U | 0.224 |
| A42C C84G | 0 |
| A43G A56U | 0.688 |
| A43G A56C | 0.587 |
| C41U A87U | 1 |
| A42G C58A | 0.655 |
| C41A A56C | 0.937 |
| A42G G76A | 0.631 |
| A43G G52A | 0.577 |
| A43G G52C | 0.796 |
| A42C U65G | 0.831 |
| A42C U65A | 0.155 |
| C41G U46G | 0.231 |

| Variant | self-cleavage |
| --- | --- |
| C41U G76C | 0.861 |
| C41U G76U | 0.897 |
| A42G G53U | 0.817 |
| A42G G53A | 0.496 |
| C41A C49U | 0.91 |
| A43G U79A | 0.192 |
| A42U C49U | 0.502 |
| A42C A56C | 0.356 |
| A42C A56U | 0.332 |
| A42U A56G | 0.306 |
| C41U G52U | 0.868 |
| A43G U65G | 0.575 |
| C41A C61U | 0.76 |
| A42G G59U | 0.608 |
| G40U G55U | 0.621 |
| A43C G50A | 0.469 |
| A43C G76A | 0.554 |
| C41A G55A | 0.937 |
| C41A C62A | 0.77 |
| C41A A43G | 0.808 |
| A43C A70C | 0.35 |
